Measured values: the supplement of paper PMC9112550, “Optimization of the antimicrobial peptide Bac7 by deep mutational scanning” (BMC Biology, 2022)

System: Escherichia coli TOP10
Experiment: shrunken log2 fold change of peptide-encoding DNA abundance (4.5 h post-induction vs induction); higher = less antimicrobial activity (less host growth inhibition)
Conditions: time post-induction: 4.5 h; library: site-saturation at positions 5, 18, 19, 20
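Note: peptides expressed intracellularly from a pBAD plasmid library in pooled LB shake-flask culture, induced with 0.3% L-arabinose, DNA abundance read by NGS, three biological replicates, DESeq2 with apeglm shrinkage.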

Sequence | shrunken log2 fold change
RRIRARPPRLPRPRPRPMQWPRP | 0.442
RRIRARPPRLPRPRPRPPFPPRP | 0.625
RRIRGRPPRLPRPRPRPYIPPRP | -0.801
RRIRVRPPRLPRPRPRPWFMPRP | -0.537
RRIRKRPPRLPRPRPRPMGNPRP | 0.111
RRIRDRPPRLPRPRPRPEMSPRP | 0.00748
RRIRCRPPRLPRPRPRPQTHPRP | 0.0541
RRIRWRPPRLPRPRPRPGQNPRP | 0.134
RRIRDRPPRLPRPRPRPNPAPRP | 0.0831
RRIRMRPPRLPRPRPRPKGNPRP | 0.0272
RRIRQRPPRLPRPRPRPDLKPRP | -0.0178
RRIRERPPRLPRPRPRPPNDPRP | -0.462
RRIRARPPRLPRPRPRPFNAPRP | -0.307
RRIRCRPPRLPRPRPRPDVCPRP | -0.0548
RRIRMRPPRLPRPRPRPFRIPRP | 0.0254
RRIRPRPPRLPRPRPRPAFNPRP | -0.0727
RRIRIRPPRLPRPRPRPFSLPRP | -1.26
RRIRKRPPRLPRPRPRPREKPRP | -0.107
RRIRQRPPRLPRPRPRPCEQPRP | -0.105
RRIRLRPPRLPRPRPRPCWDPRP | -0.104
RRIRCRPPRLPRPRPRPLVKPRP | -0.0116
RRIRDRPPRLPRPRPRPVMEPRP | 0.532
RRIRHRPPRLPRPRPRPYQFPRP | -0.0129
RRIRPRPPRLPRPRPRPMTNPRP | -0.184
RRIRARPPRLPRPRPRPKGDPRP | -0.07

Sequence | shrunken log2 fold change
RRIRERPPRLPRPRPRPWVTPRP | -0.0915
RRIRDRPPRLPRPRPRPCMQPRP | -0.0524
RRIRMRPPRLPRPRPRPKNRPRP | 0.375
RRIRKRPPRLPRPRPRPMDTPRP | 0.336
RRIRHRPPRLPRPRPRPGHEPRP | -0.133
RRIRVRPPRLPRPRPRPWFCPRP | -0.299
RRIRNRPPRLPRPRPRPQEGPRP | 0.0303
RRIRLRPPRLPRPRPRPNIFPRP | 0.104
RRIRMRPPRLPRPRPRPMFPPRP | 0.164
RRIRLRPPRLPRPRPRPGATPRP | 0.527
RRIRKRPPRLPRPRPRPDHWPRP | 0.355
RRIRTRPPRLPRPRPRPFCYPRP | -0.24
RRIRYRPPRLPRPRPRPTDGPRP | -0.0848
RRIRDRPPRLPRPRPRPWTAPRP | -0.0482
RRIRRRPPRLPRPRPRPASDPRP | -0.0475
RRIRNRPPRLPRPRPRPHSFPRP | -0.258
RRIRCRPPRLPRPRPRPWGMPRP | -0.16
RRIRMRPPRLPRPRPRPHTYPRP | -0.209
RRIRDRPPRLPRPRPRPLLRPRP | 0.0308
RRIRRRPPRLPRPRPRPSFPPRP | 0.0188
RRIRMRPPRLPRPRPRPKPDPRP | 1.13
RRIRPRPPRLPRPRPRPNDQPRP | 1.93
RRIRNRPPRLPRPRPRPSGQPRP | -0.188
RRIRPRPPRLPRPRPRPVDGPRP | 0.0909
RRIRERPPRLPRPRPRPVVQPRP | -0.104

Sequence | shrunken log2 fold change
RRIRHRPPRLPRPRPRPSYFPRP | -0.628
RRIRNRPPRLPRPRPRPGVRPRP | 0.212
RRIRGRPPRLPRPRPRPNKMPRP | 0.162
RRIRARPPRLPRPRPRPQAQPRP | 0.664
RRIRQRPPRLPRPRPRPHVCPRP | -0.0223
RRIRHRPPRLPRPRPRPELVPRP | 0.177
RRIRPRPPRLPRPRPRPYPIPRP | -0.175
RRIRVRPPRLPRPRPRPIRKPRP | -0.165
RRIRMRPPRLPRPRPRPESKPRP | 2.93
RRIRKRPPRLPRPRPRPQPYPRP | -0.157
RRIRRRPPRLPRPRPRPANWPRP | 0.387
RRIRERPPRLPRPRPRPNATPRP | 0.287
RRIRKRPPRLPRPRPRPNNFPRP | -0.0233
RRIRQRPPRLPRPRPRPKNTPRP | -0.394
RRIRGRPPRLPRPRPRPFCVPRP | 0.392
RRIRLRPPRLPRPRPRPKRDPRP | 0.43
RRIRQRPPRLPRPRPRPNYIPRP | -0.445
RRIRHRPPRLPRPRPRPRGMPRP | 0.207
RRIRERPPRLPRPRPRPTWKPRP | -0.012
RRIRYRPPRLPRPRPRPKMPPRP | -0.206
RRIRRRPPRLPRPRPRPCESPRP | 0.0471
RRIRPRPPRLPRPRPRPIEWPRP | 0.015
RRIRHRPPRLPRPRPRPYPWPRP | -0.113
RRIRHRPPRLPRPRPRPDKEPRP | -0.00149
RRIRPRPPRLPRPRPRPNCAPRP | 0.208

Sequence | shrunken log2 fold change
RRIRERPPRLPRPRPRPMPVPRP | -0.107
RRIRARPPRLPRPRPRPIKEPRP | -0.0357
RRIRTRPPRLPRPRPRPLADPRP | 0.125
RRIRRRPPRLPRPRPRPCIWPRP | 0.0382
RRIRKRPPRLPRPRPRPAWLPRP | 0.564
RRIRERPPRLPRPRPRPAPEPRP | 0.236
RRIRFRPPRLPRPRPRPCDNPRP | -0.0843
RRIRNRPPRLPRPRPRPHGNPRP | -0.189
RRIRSRPPRLPRPRPRPCYEPRP | -0.167
RRIRMRPPRLPRPRPRPCTTPRP | 0.104
RRIRPRPPRLPRPRPRPLGRPRP | 0.0841
RRIRYRPPRLPRPRPRPCWGPRP | -0.204
RRIRWRPPRLPRPRPRPALSPRP | -0.0314
RRIRIRPPRLPRPRPRPDFEPRP | -0.39
RRIRKRPPRLPRPRPRPQMWPRP | 0.608
RRIRFRPPRLPRPRPRPHYHPRP | -0.834
RRIRIRPPRLPRPRPRPYWLPRP | -0.413
RRIRCRPPRLPRPRPRPRYFPRP | -0.529
RRIRFRPPRLPRPRPRPEMQPRP | 0.0943
RRIRQRPPRLPRPRPRPTKFPRP | -0.203
RRIRVRPPRLPRPRPRPCTGPRP | -1.78
RRIRCRPPRLPRPRPRPSLGPRP | -0.0171
RRIRMRPPRLPRPRPRPETCPRP | 1.67
RRIRQRPPRLPRPRPRPCWFPRP | -0.257
RRIRVRPPRLPRPRPRPCCHPRP | -0.217

Sequence | shrunken log2 fold change
RRIRYRPPRLPRPRPRPIKRPRP | -0.767
RRIRTRPPRLPRPRPRPRSIPRP | -0.122
RRIRGRPPRLPRPRPRPYPLPRP | -0.236
RRIRMRPPRLPRPRPRPPIYPRP | -0.0765
RRIRVRPPRLPRPRPRPMNHPRP | -0.194
RRIRFRPPRLPRPRPRPHELPRP | 0.0835
RRIRVRPPRLPRPRPRPGQTPRP | -0.00176
RRIRDRPPRLPRPRPRPNREPRP | -0.00168
RRIRKRPPRLPRPRPRPTNWPRP | 0.689
RRIRWRPPRLPRPRPRPMKHPRP | -0.0254
RRIRGRPPRLPRPRPRPKPKPRP | 0.601
RRIRWRPPRLPRPRPRPEGSPRP | 0.754
RRIRRRPPRLPRPRPRPTRHPRP | 0.783
RRIRERPPRLPRPRPRPRCDPRP | -0.044
RRIRDRPPRLPRPRPRPCDMPRP | -0.0013
RRIRPRPPRLPRPRPRPQTLPRP | 0.000929
RRIRVRPPRLPRPRPRPMDTPRP | -0.171
RRIRARPPRLPRPRPRPIDAPRP | 0.0272
RRIRPRPPRLPRPRPRPDKAPRP | 0.00631
RRIRDRPPRLPRPRPRPNGDPRP | -0.00931
RRIRWRPPRLPRPRPRPYVCPRP | -0.00902
RRIRERPPRLPRPRPRPVTWPRP | -0.165
RRIRPRPPRLPRPRPRPVGRPRP | 0.0963
RRIRTRPPRLPRPRPRPGWPPRP | 0.576
RRIRFRPPRLPRPRPRPWRPPRP | 0.275
